In paper PMC8000974, “Tumor Activated Cell Penetrating Peptides to Selectively Deliver Immune Modulatory Drugs” (Pharmaceutics, 2021):

Experiments:
[1] = test system: B16F10 melanoma cells; assay: Cell culture Cy5 imaging of peptide uptake; type: cell-based; details: murine B16 cells, 1 μM peptide in 1% FBS, 2 h at room temperature then 2 h in media, fixed
Description: (§1) Murine B16F10 melanoma and LL2 Lewis lung carcinoma cell lines were purchased from ATCC. MC38 colon adenocarcinoma cell line was purchased from Kerafast (Boston, MA, USA). Cell lines were grown in Dulbecco’s modified eagle’s medium (DMEM) + 10% fetal bovine serum (FBS) media. All cell lines were maintained at low passage and routinely tested for mycoplasma. For Cy5 imaging, cells were resuspended and incubated with Cy5 labeled r9 or ACPP at 1 μM in 1% FBS. The cells were incubated for 2 h under rotation and covered to be protected from light at room temperature. Cells were then spun down (5 min at 2000 rpm) and resuspended in cell media for an additional 2 h. The cells were then fixed with 4% paraformaldehyde in phosphate buffered saline (PBS), washed twice with PBS and incubated with 4′,6-diamidino-2-phenylindole (DAPI) stain (1:500). Finally, the cells were washed with PBS and mounted on slides using Fluoromount mounting media (Sigma, St Louis, MI, USA). Cells were imaged using a Keyence microscope with a 100× oil objective and high-resolution settings.

[2] = test system: LL2 Lewis lung carcinoma cells; assay: Cell culture Cy5 imaging of peptide uptake; type: cell-based; details: murine LL2 cells, 1 μM peptide in 1% FBS, 2 h at room temperature then 2 h in media, fixed
Description: as §1

[3] = test system: MC38 colon adenocarcinoma cells; assay: Cell culture Cy5 imaging of peptide uptake; type: cell-based; details: murine MC38 cells, 1 μM peptide in 1% FBS, 2 h at room temperature then 2 h in media, fixed
Description: as §1

[4] = test system: B16F10 melanoma tumors; assay: In vivo murine therapy experiments; design: species or system mice; details: for Tumor control (tumor volume) vs control untreated: day 5 and day 9, 10 tumors per group
Description: Female six-week-old C57Bl6 albino mice were injected with 50,000 B16F10 melanoma cells subcutaneously in both thighs using a 1:1 mixture of PBS:Matrigel. The tumors were palpable five days after implant at which point treatment was initiated. Due to the rapid growth of B16F10 tumor in mice, dosing began when tumors reached an average size of 30 ± 13 mm^3. Animals were divided into four treatment groups: control, intratumoral (i.t.) resiquimod (30 nmoles per tumor), i.t. ACPP-resiquimod (30 nmoles per tumor), or i.v. ACPP-resiquimod (60 nmoles per mouse). Mice were given free drug or ACPP conjugated on day 5 and day 9. Each treatment group had five mice with 10 tumors. Tumor volumes were measured bi-weekly and mice weighed weekly. Mice were sacrificed when the tumor size reached 1500 mm^3.

[5] = test system: B16F10 melanoma tumors; assay: Tissue drug concentration (LC-MS/MS) after i.v. ACPP-resiquimod; type: in vivo; details: B16F10 tumor bearing C57Bl6 albino mice, 30 nmoles ACPP-resiquimod i.v., 6 h post injection, free resiquimod by LC-MS/MS
Description: Female six-week-old C57Bl6 albino mice were injected with 50,000 B16F10 melanoma cells subcutaneously into both thighs using a 1:1 PBS:Matrigel. Mice were i.v. injected with 30 nmoles of ACPP-resiquimod in 100 µL sterile water and 6 h post injection mice were sacrificed. Tumor and adjacent muscle tissue were excised, weighed, and flash frozen in liquid N2. A mixture of 44 mL H2O, 44 mL acetonitrile, and 2 mL glacial acetic acid was used as the diluent. Nine times w/v of diluent was added to the frozen tissue. Tissues were dissociated on ice with a Sonic dismemberator Model 500 (Fisher Scientific) tissue probe homogenizer using 5 s pulse of 20% amplitude four to five times. The samples were spun down to obtain clear supernatant. For muscle tissue, addition passage through a 0.22 µm Nylon filter (Costar Spin X; purchased from Sigma, St Louis, MI, USA) was used to obtain clear supernatant. A fixed volume of tissue supernatant from each sample was injected on the LC-MS/MS (Agilent 1100 LC with MSD Trap XCT, Santa Clara, CA, USA). Each sample was run in duplicate on the LC-MS/MS to determine reproducibility of integrated ion current for each sample. […] Concentration of unknown samples were then calculated (Graphpad PRISM).

Compound	Cell uptake (Cy5 fluorescence microscopy) [1]	Cell uptake (Cy5 fluorescence microscopy) [2]	Cell uptake (Cy5 fluorescence microscopy) [3]	Tumor control (tumor volume) vs control untreated ([4]; i.t. 30 nmoles per tumor)	Mouse survival, dose response ([4]; i.t. injection, 30 nmoles compared to 10 nmoles, Log-rank (Mantel–Cox) test)	Resiquimod drug concentration in tumor tissue [5] [nM]	Resiquimod drug concentration in peri-tumoral muscle tissue ([5]; negative value from calibration background noise) [nM]	Antitumor efficacy compared with free resiquimod ([4]; ACPP-resiquimod i.t. or i.v. vs i.t. free resiquimod, total drug per animal constant)	Tumor control (tumor volume) vs control untreated ([4]; i.v. 60 nmoles per mouse)
CCN1C(=CC=CC=CC2=[N+](CCCCCC(=O)NCCN3C(=O)CC(SC[C@@H](NC(=O)[C@@H](CCCNC(=N)N)NC(=O)[C@@H](CCCNC(=N)N)NC(=O)[C@@H](CCCNC(=N)N)NC(=O)[C@@H](CCCNC(=N)N)NC(=O)[C@@H](CCCNC(=N)N)NC(=O)[C@@H](CCCNC(=N)N)NC(=O)[C@@H](CCCNC(=N)N)NC(=O)[C@@H](CCCNC(=N)N)NC(=O)[C@H](N)CCCNC(=N)N)C(N)=O)C3=O)c3ccc(S(=O)(=O)[O-])cc3C2(C)C)C(C)(C)c2cc(S(=O)(=O)O)ccc21 (stereo partly shown) [Cy5 labeled r9]	readily taken up	readily taken up	readily taken up	–	–	–	–	–	–
CCOCc1nc2c(N)nc3ccccc3c2n1CC(C)(C)O [resiquimod, Resiquimod, reference compound]	–	–	–	improved tumor control	statistically improved survival	–	–	–	–
cyclo(RGD)fc-MC-HN-peg8-e9-oPLGC(Me)AG-r9-c-(MC-VC-PABC-resiquimod-CONH2 [ACPP-resiquimod]	–	–	–	improved tumor control	–	1142.3 ± 111.7	-5.8 ± 3.5	as efficacious as free resiquimod	improved tumor control
